Reference: patent US20240158457A1, “INTERLEUKIN-18 RECEPTOR BINDING POLYPEPTIDES AND USES THEREOF” (Medikine, Inc., priority 2022, published 2024)

Target: human IL-18 receptor (alpha and beta subunits) on HEK-BLUE IL-18 reporter cells (human) (UniProt Q13478)
Experiment: cell-based or functional assay

Chain of human IL-18 receptor (alpha and beta subunits) on HEK-BLUE IL-18 reporter cells (human) (Q13478 19-541, chain 1 of 2): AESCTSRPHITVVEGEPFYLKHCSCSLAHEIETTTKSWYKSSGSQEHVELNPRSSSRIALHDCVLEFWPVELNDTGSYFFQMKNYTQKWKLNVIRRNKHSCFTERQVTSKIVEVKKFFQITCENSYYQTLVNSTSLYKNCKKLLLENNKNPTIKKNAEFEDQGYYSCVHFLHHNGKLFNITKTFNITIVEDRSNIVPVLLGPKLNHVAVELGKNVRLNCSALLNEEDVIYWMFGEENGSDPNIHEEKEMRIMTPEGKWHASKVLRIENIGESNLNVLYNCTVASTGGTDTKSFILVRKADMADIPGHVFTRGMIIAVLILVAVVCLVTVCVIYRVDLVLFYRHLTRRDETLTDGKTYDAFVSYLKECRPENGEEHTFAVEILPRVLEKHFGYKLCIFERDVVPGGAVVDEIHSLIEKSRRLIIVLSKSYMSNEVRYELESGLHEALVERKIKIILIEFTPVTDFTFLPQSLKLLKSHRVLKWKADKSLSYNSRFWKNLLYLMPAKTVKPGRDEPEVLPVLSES
Chain of human IL-18 receptor (alpha and beta subunits) on HEK-BLUE IL-18 reporter cells (human) (O95256 20-599, chain 2 of 2, further chain): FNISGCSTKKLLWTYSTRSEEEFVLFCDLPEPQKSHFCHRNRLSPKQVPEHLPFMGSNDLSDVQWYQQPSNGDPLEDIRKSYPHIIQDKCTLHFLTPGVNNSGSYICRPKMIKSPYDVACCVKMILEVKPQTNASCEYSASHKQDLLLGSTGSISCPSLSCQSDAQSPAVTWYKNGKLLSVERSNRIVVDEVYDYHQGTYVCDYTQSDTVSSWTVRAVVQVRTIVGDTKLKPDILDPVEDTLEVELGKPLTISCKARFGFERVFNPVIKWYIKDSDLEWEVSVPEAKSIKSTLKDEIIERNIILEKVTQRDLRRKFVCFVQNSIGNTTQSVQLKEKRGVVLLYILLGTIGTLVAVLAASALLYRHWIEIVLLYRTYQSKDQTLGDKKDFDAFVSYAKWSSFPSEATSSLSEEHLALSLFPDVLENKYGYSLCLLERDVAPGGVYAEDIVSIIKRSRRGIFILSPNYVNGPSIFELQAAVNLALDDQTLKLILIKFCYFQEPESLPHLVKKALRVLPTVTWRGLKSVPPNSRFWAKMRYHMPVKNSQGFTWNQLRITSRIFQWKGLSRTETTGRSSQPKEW

Human recombinant IL-18 (R&D Systems #9124-IL-050/CF) (from UniProt Q14116 1-193) (ligand)
EC50, NF-κB reporter activity in HEK-BLUE IL-18 cells: 0.38 pM
